Source: patent US6491908
Read-outs that look alike come from different tables or passages of the source.

What was measured:
Assay in all cases: cell-based or functional assay
[1] = target: CD3 portion of the T cell receptor on Jurkat cells (human) (UniProt P07766)
[2] = target: CD3 portion of the T cell receptor on Jurkat cells (human) (UniProt P07766); remark: listed apart in the source
[3] = target: mouse class I MHC D^d (full length, without signaling molecule) (mouse) (UniProt P01900)
[4] = target: D^d/zeta chimera (mouse class I MHC D^d fused to the murine T cell receptor zeta chain) (mouse) (UniProt P24161)
[5] = target: mouse class I MHC D^d (full length, without signaling molecule) (mouse) (UniProt P01900); remark: listed apart in the source
[6] = target: D^d/zeta chimera (mouse class I MHC D^d fused to the murine T cell receptor zeta chain) (mouse) (UniProt P24161); remark: listed apart in the source

mouse class I MHC D^d (full length, without signaling molecule) (mouse), sequence (P01900 25-365): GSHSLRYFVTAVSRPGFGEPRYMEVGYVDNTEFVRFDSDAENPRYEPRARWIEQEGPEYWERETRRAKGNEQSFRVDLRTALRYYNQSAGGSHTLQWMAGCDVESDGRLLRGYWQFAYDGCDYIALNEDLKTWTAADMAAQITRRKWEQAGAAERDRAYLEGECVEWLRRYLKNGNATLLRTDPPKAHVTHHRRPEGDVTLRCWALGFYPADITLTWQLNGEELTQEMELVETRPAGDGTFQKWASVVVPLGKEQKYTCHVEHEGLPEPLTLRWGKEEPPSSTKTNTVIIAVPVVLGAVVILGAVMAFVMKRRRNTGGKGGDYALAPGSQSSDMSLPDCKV
CD3 portion of the T cell receptor on Jurkat cells (human), sequence (P07766 23-207): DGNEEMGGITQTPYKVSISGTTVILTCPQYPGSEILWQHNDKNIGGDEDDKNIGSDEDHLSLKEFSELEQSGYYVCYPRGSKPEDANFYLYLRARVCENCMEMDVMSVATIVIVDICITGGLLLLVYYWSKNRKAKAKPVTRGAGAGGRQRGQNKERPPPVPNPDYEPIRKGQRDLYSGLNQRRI

| Substance | Proliferation (CPM) of CTLL-2 cells (IL-2 in supernatant of untransfected Jurkat cells), with PMA [1] [CPM] | Proliferation (CPM) of CTLL-2 cells (IL-2 in supernatant of untransfected Jurkat cells), without PMA [1] [CPM] | Proliferation (CPM) of CTLL-2 cells (IL-2 in supernatant of #19 (D^d) Jurkat cells), with PMA [2] [CPM] | Proliferation (CPM) of CTLL-2 cells (IL-2 in supernatant of #19 (D^d) Jurkat cells), without PMA [2] [CPM] | cellular proliferation ([3H]TdR) of spleen lymphoid cells of pD^d1 (D^d) transgenic mice, anti-D^d + anti-CD8 + anti-CD3 mAbs together [3] | cellular proliferation ([3H]TdR) of spleen lymphoid cells of pD^d1 (D^d) transgenic mice, anti-D^d + anti-CD8 mAbs together [3] | cellular proliferation ([3H]TdR) of spleen lymphoid cells of pD^d1 (D^d) transgenic mice, anti-D^d mAb alone [3] | Proliferation (CPM) of CTLL-2 cells (IL-2 in supernatant of J11-6 (D^d/zeta) Jurkat cells), with PMA [4] [CPM] | Proliferation (CPM) of CTLL-2 cells (IL-2 in supernatant of J11-6 (D^d/zeta) Jurkat cells), without PMA [4] [CPM] | cellular proliferation ([3H]TdR) of spleen lymphoid cells of D^d/zeta transgenic mice, anti-D^d + anti-CD8 + anti-CD3 mAbs together [4] | cellular proliferation ([3H]TdR) of spleen lymphoid cells of D^d/zeta transgenic mice, anti-D^d + anti-CD8 mAbs together [4] | cellular proliferation ([3H]TdR) of spleen lymphoid cells of D^d/zeta transgenic mice, anti-D^d mAb alone [4] | fold enhancement of proliferation over the D^d alone expressing cells [4] [fold] | Proliferation (CPM) of CTLL-2 cells (IL-2 in supernatant of #19 (D^d) Jurkat cells), with PMA [5] [CPM] | Proliferation (CPM) of CTLL-2 cells (IL-2 in supernatant of #19 (D^d) Jurkat cells), without PMA [5] [CPM] | Proliferation (CPM) of CTLL-2 cells (IL-2 in supernatant of J11-6 (D^d/zeta) Jurkat cells), with PMA [6] [CPM] | Proliferation (CPM) of CTLL-2 cells (IL-2 in supernatant of J11-6 (D^d/zeta) Jurkat cells), without PMA [6] [CPM] |
| --- | --- | --- | --- | --- | --- | --- | --- | --- | --- | --- | --- | --- | --- | --- | --- | --- | --- |
| OKT3, an anti-CD3 antibody | 2200 | 1180 | 10900 | 9530 | – | – | – | – | – | – | – | – | – | – | – | – | – |
| anti-D^d monoclonal antibody (34-2-12) | – | – | – | – | 25000 | 1240 | 897 | 26800 | 338 | 253000 | 242000 | 303000 | 10 to 300 | 5520 | 492 | 16700 | 361 |
